In the series the target is native human alpha-thrombin (Homo sapiens, UniProt P00734;P00734 328-363;364-622). The series can be described thus: ITC; ITC: 20 mM HEPES-NaOH, 150 mM NaCl, 5 mM KCl, 2 mM MgCl2, 1 mM CaCl2, pH 7.4, 25 C; EMSA: same plus 0.05% Tween 20 and 10% glycerol, room temperature 30 min, ge. (Isothermal titration calorimetry measures the heat released or taken up as one component is titrated into another.)

B1: D-6 aptamer (structured_DNA)
DNA: CGGATCCAGTTACGGAACTGAACAGAAGGGTGGTGTGGTTGGACTGTTCATTCAGTAAGCTTCGG
The term Kd denotes the concentration at which binding is half-saturated. As to B1, the Kd stood at 27 nM.

Turning to GATGAACTTGTTGAAACCCAACGGGAGAATCGTTCATT (structured_DNA, natural D-DNA) [D-L-9-2t], the binding result was “no binding”. Take ACGGAACGCGTTTCAAGACTACCGTGTTTGTTCCGT (structured_DNA, natural D-DNA) [D-L-9-1t]: the binding result is recorded as “no binding”.

These data come from paper PMC9646512, “Directed evolution and selection of biostable l-DNA aptamers with a mirror-image DNA polymerase”.
